Experimental data from PMC3718800, “Structural and Functional Perturbation of Giardia lamblia Triosephosphate Isomerase by Modification of a Non-Catalytic, Non-Conserved Region” (PLoS ONE, 2013).

Assay: TIM activity coupled assay, kinetic constants of WT GlTIM and C222 mutants with GAP
Type: biochemical, Giardia lamblia
Procedure: Glyceraldehyde 3-phosphate (GAP), buffers, salts and all the other analytical grade reagents were acquired from Sigma–Aldrich; α-glycerol-3-phosphate dehydrogenase (α-GDH) was from Roche, crystallization screen kits were obtained from Hampton Research. Restriction enzymes, DNA polymerase and T4 DNA ligase were purchased from New England BioLabs and Invitrogene. Oligonucleotide synthesis and DNA sequencing was performed at the Unidad de Biología Molecular, Instituto de Fisiología Celular, UNAM. Protein concentration was determined by the bicinchoninic acid method or by absorbance at 280 nm for pure GlTIM (ε280 = 26600 M^-1cm^-1). The TIM activity was determined at 25°C by a coupled assay, following the decrease in absorbance at 340 nm. The standard reaction mixture contained 100 mM triethanolamine/10 mM EDTA, pH 7.4 (TE buffer), 1 mM GAP, 0.2 mM NADH, and 0.9 units of α-GDH (20 μg/mL); the reaction was initiated by addition of 5 ng/mL of WT, C222V or C222M GlTIM, 10 ng/mL of C222N, 20 ng/mL of C222D or C222F, and 200 ng/mL of C222K. Kinetic, binding and stability data were analyzed by non-linear regression calculations with Origin software.
Determination of Km and Vmax was performed by fitting initial velocity data at GAP concentrations ranging from 0.3 to 3 mM to the Michaelis-Menten equation (v = Vmax•S/Km+S) by non-linear regression calculations. […]

B1: GlTIM: recombinant wild type triosephosphate isomerase of Giardia lamblia (protein, UniProt P36186 1-257, looked up)
Triosephosphate isomerase: MPARRPFIGGNFKCNGSLDFIKSHVAAIAAHKIPDSVDVVIAPSAVHLSTAIAANTSKQLRIAAQNVYLEGNGAWTGETSVEMLQDMGLKHVIVGHSERRRIMGETDEQSAKKAKRALEKGMTVIFCVGETLDERKANRTMEVNIAQLEALGKELGESKMLWKEVVIAYEPVWSIGTGVVATPEQAEEVHVGLRKWFAEKVCAEGAQHIRIIYGGSANGSNCEKLGQCPNIDGFLVGGASLKPEFMTMIDILTKTRT
Vmax (GAP 0.3 to 3 mM, 25°C, pH 7.4): 8050 ± 444 µmol/min/mg | kcat x 10^5 (calculated from Vmax, molecular mass 27.7 kDa): 4.4 x 10^5 min^-1
